In assay [1] the target is T1, recombinant human Tenascin-C (rhTNC) (human).
T1 construct: It was purified on a Ni column, but no tag is described; also called recombinant hTNC
In words: indirect ELISA on rhTNC, Nb dilutions 5x10^-7 M to 5x10^-12 M. For orientation: An ELISA detects its analyte on a solid surface through an enzyme-linked reagent.

The target of assay [2] is T2, recombinant murine TNC (mTNC) (murine).
T2 construct: also called recombinant mTNC
As to the kind of experiment: isothermal fluorescence titration, fluorescently tagged mTNC 700 nM, Nb 500-3500 nM.

Residue numbers refer to the chain shown, from its start.

B1: single-domain antibody directed against Tenascin-C (TNC) Nb3 (VHH)
VHH: WLQLVESGGGSVQTGGSLRLSCVVSGYTNSIYTLAWFRQAPGKEREGVAAIGSRNGNTYYDASVKDRFTISLDKAKNTVYLQMNDLKPEDTASYYCAAGSSWDLILQAYAYDYWGQGTQVTVSS
modifications: Conjugated to 5 nm colloidal gold in the electron microscopy assay only.
notes: also called C3
As for B1, the EC50 (usually the concentration needed to bring the measured effect to its halfway point) in assay [1] is around 10 nM. The Kd (as a rule, the concentration at which binding is half-saturated) in assay [2] came out at 711 nM.

B2: single-domain antibody directed against Tenascin-C (TNC) Nb4 (VHH)
VHH: B1 VHH with L2V, G52A, D85G
modifications: Conjugated to 5 nm colloidal gold in the electron microscopy assay only.
notes: Dromedary VHH made in the E. coli WK6 periplasm and purified by IMAC; Conjugated to 5 nm colloidal gold for electron microscopy; also called C4
Consider B2, for which, in assay [1], the EC50 is around 5 nM. The dissociation constant (Kd) in assay [2] turned out to be 537 nM.

The values are drawn from EP4047016A1 (Université de Strasbourg, dated 2022).
